The results in this text go back to paper PMC2268108.

This assay addresses T1, KcsA K+ channel, wild type, P0A334.
T1 chain: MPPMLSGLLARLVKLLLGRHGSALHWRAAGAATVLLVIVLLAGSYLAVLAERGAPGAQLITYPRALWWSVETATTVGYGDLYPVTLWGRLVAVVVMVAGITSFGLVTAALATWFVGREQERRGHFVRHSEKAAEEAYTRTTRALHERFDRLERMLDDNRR
The assay can be described thus: SDS-PAGE of the tetramer. As to conditions: remark: other sources report otherwise.

B1: KcsA K+ channel, wild type, P0A334 1-160 (natural protein)
chain: MPPMLSGLLARLVKLLLGRHGSALHWRAAGAATVLLVIVLLAGSYLAVLAERGAPGAQLITYPRALWWSVETATTVGYGDLYPVTLWGRLVAVVVMVAGITSFGLVTAALATWFVGREQERRGHFVRHSEKAAEEAYTRTTRALHERFDRLERMLDDNRR
Consider B1, for which the stoichiometry N turned out to be 4.
